The record followed here is patent publication US20240409617A1.

The term Kd denotes the concentration at which binding is half-saturated. The low end stands for a tighter complex, the high end for a looser complex.

B1: Ab 38 scFv-Fc (scFv, V domains shown)
VH: QVTLKESGPTLVKPTQTLTLTCTFSGFSLTTSGVSVGWIRQPPGKALEWLALIHWDDDKRYSPSLRSRLTITRDTSKNQVVLTVTDMDPADTGTYYCASFIMTVYAEYFEDWGQGTLVTVSS
VL: EIVLTQSPATLSVSPGERATLSCRASQSVSSNLAWYQQKPGQAPRLLMYDVSTRATGIPARFSGSGSGTEFSLTISSLQSEDFAVYYCQQRGAWPLTFGGGTKVEIK
B2: Ab 30 scFv-Fc (scFv, V domains shown)
VH: QVQLVQSGGGVVQPGKSLRLSCTASGFTFSDFPIHWVRQAPGKGLEWVGVISYDGNIKYYGDSVKGRFTISRDNAKNSLYLQMNSLRVEDTAVYYCARGGSSFDIWGQGTTVTVSS
VL: SYELTQPPSVSEAPRQRVTISCSGSTSNIGNNAVSWYQHLPGKAPKLLIYYNERLPSGVSDRFSGSKSGTSASLAISGLRSEDEADYYCAAWDDSLSGHVVFGGGTKLTVL
B3: Ab 29 scFv-Fc (scFv, V domains shown)
VH: QVQLQQSGPGLVKPSQTLSLTCAISGDSVSSYSDAWNWIRQSPSRGLEWLGRTYYRSKWYNDYAVSVKSRITINPDTSKNQFSLQLSSVTPEDTAVYYCAREIVATTPFRNYYYGMDVWGQGTTVTVSS
VL: NFMLTQPHSVSESPGNTVTISCTRTSGSIASNYVQWYQQRPGSSPTTVIFQDKLRPSGVPDRFSGSIDSSSNSASLTISGLKTEDEADYYCQSYDSSSLWVFGGGTKLTVL
B4: Ab 31 scFv-Fc (scFv, V domains shown)
VH: QVQLVQSGAEVKKPGSSVKVSCKASGGTFSSYTISWVRQAPGQGLEWMGGIIPILGTPNYAQKFQDRVAITADKSTSTAYMELSSLRSEDTAVYYCAVGSGWYSGFDYWGQGTLVTVSS
VL: NFMLTQPHSVSESPGKTVTISCTGSSGSIASNYVQWYQQRPGSAPTTVIYEDSQRPSGVPDRFSGSIDSSSNSASLTISGLKTEDEADYYCQSFHNSNPVIFGGGTKLTVL

One experiment has as its target B.1.351 Spike (SARS-CoV-2 spike protein, South African variant B.1.351) (SARS-CoV-2).
For B1, the equilibrium dissociation constant (Kd) was 7.62 pM and the Response is 0.234.

For B2, the equilibrium dissociation constant (Kd) is < 1 pM and the Response came to 0.0883.

As to B3, the Kd worked out at 371 pM and the Response is 0.0418.

For B4, the Kd was < 1 pM and the Response came out at 0.09.

A further experiment concerns the target P.1 Spike (SARS-CoV-2 spike protein, Brazilian variant P.1) (SARS-CoV-2).
With B1, the Kd was 7.23 pM and the Response is 0.228.

As for B2, the Kd is 9.02 pM and the Response came out at 0.0766.

In the case of B3, the equilibrium dissociation constant (Kd) is 8.45 pM and the Response turned out to be 0.0232.

B4 showed a Kd of 8.97 pM and a Response of 0.0789.

The target in a further experiment is D614G Spike (SARS-CoV-2 spike protein, D614G) (SARS-CoV-2).
For B1, the Kd came out at 3.37 pM and the Response worked out at 0.328.

In the next experiment the target is B.1.1.7 Spike (SARS-CoV-2 spike protein, UK variant B.1.1.7) (SARS-CoV-2).
The molecule B1 registered a Kd of 1.47 pM and a Response of 0.267.

Take B2: the dissociation constant (Kd) is < 1 pM and the Response was determined as 0.139.

Turning to B3, the Kd came out at 693 pM and the Response is 0.118.

Consider B4, for which the Kd is < 1 pM and the Response was found to be 0.135.
